Measurements taken from the supplement of paper PMC10126150.
± gives the standard deviation of the averaged measurements.

Tested on: ATP
Experiment: switch fluorescence ratio, 500 uM ATP over buffer (Cy3 cluster intensity, sum of 5 cycles each) (fold (ratio)); higher = stronger signal-on switching upon ATP binding; sequences stand for … in TCGTCGGCAGCGTCAGATGTGTATAAGAGACAGTTTTTTTTTTTTTTTTTTTTTTTTT…TC
Conditions: aptamer strand: ATP DNA aptamer (quencher-CACCTGGGGGAGTATTGCGGAGGAAGG + anchor), 100 nM annealed; ATP concentration: 500 uM
Method in brief: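 Clusters with intensities outside 100-1000 RFU were excluded. The remaining Cy3-labelled switching-strand clusters on a modified Illumina MiSeq flow-cell had been annealed to 100 nM quencher-labelled ATP aptamer and imaged in selection buffer, then after 15 min with 500 uM ATP at 22 °C, for five cycles separated by NaOH stripping and re-annealing. The fluorescence ratio, averaged per switch-domain sequence, is each cluster's summed target-cycle Cy3 intensity over its summed buffer-cycle Cy3 intensity.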
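Further: ATP exposure 15 min at 22 °C before imaging.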

Row | Sequence | switch fluorescence ratio
1 | TCAGGGGCGT | 1.0041 ± 0.00072
2 | TCAGGGGTGT | 1.08 ± 0.024
3 | TCAGGTAGCG | 1.004 ± 0.0061
4 | TCAGGTGAAT | 1.32 ± 0.065
5 | TCAGGTGGGG | 1.07 ± 0.046
6 | TCAGGTTAAG | 0.9954 ± 0.0061
7 | TCAGGTTTCC | 1.0249 ± 0.00069
8 | TCAGTACGCA | 1.57 ± 0.095
9 | TCAGTAGAGA | 0.995 ± 0.018
10 | TCAGTAGCGG | 1.07 ± 0.1
11 | TCAGTAGGGA | 2.94 ± 2.8
12 | TCAGTCATTT | 1.003 ± 0.0066
13 | TCAGTGCGGG | 0.98 ± 0.047
14 | TCAGTGGACG | 0.996 ± 0.072
15 | TCAGTGTGCT | 0.98 ± 0.014
16 | TCAGTGTGTT | 1.02 ± 0.038
17 | TCAGTTAAGG | 0.9866 ± 0.0039
18 | TCAGTTATGG | 1.001 ± 0.0086
19 | TCAGTTCGGC | 0.976 ± 0.037
20 | TCAGTTTAGA | 1 ± 0.011
21 | TCAGTTTTGT | 1.012 ± 0.0094
22 | TCATAAAGTT | 0.994 ± 0.034
23 | TCATACTGTG | 1.03 ± 0.014
24 | TCATAGAGG | 0.9822 ± 0.0058
25 | TCATAGGGGC | 1.04 ± 0.012

Row | Sequence | switch fluorescence ratio
26 | TCATATTTAA | 1.015 ± 0.0043
27 | TCATCAGGGC | 1.08 ± 0.034
28 | TCATCATTCG | 0.9668 ± 0.0052
29 | TCATCGGCAT | 4.07 ± 1.3
30 | TCATCGGGGA | 1.01 ± 0.028
31 | TCATCTATAT | 1.03 ± 0.028
32 | TCATCTGTGC | 1.07 ± 0.029
33 | TCATGAACAG | 0.993 ± 0.014
34 | TCATGACGT | 0.9921 ± 0.0037
35 | TCATGAGTTG | 0.963 ± 0.018
36 | TCATGCACTG | 1.05 ± 0.035
37 | TCATGCGAAA | 1.1 ± 0.013
38 | TCATGCGGGC | 1.02 ± 0.038
39 | TCATGCTTGA | 0.974 ± 0.032
40 | TCATGCTTTT | 1.03 ± 0.019
41 | TCATGGCGTG | 0.988 ± 0.011
42 | TCATGGTATG | 0.997 ± 0.024
43 | TCATGTAAGT | 0.997 ± 0.02
44 | TCATGTAGGG | 0.989 ± 0.015
45 | TCATGTCGGG | 1.005 ± 0.01
46 | TCATGTCGGT | 0.979 ± 0.017
47 | TCATGTTCGT | 1.08 ± 0.15
48 | TCATGTTGAT | 1 ± 0.071
49 | TCATGTTGTG | 1.01 ± 0.02
50 | TCATGTTTCG | 1 ± 0.031

Row | Sequence | switch fluorescence ratio
51 | TCATTATGCA | 1.04 ± 0.018
52 | TCATTATGGA | 0.989 ± 0.014
53 | TCATTCATGG | 0.977 ± 0.011
54 | TCATTGAGCG | 0.981 ± 0.04
55 | TCATTGAGGA | 0.992 ± 0.014
56 | TCATTGTGGG | 0.9799 ± 0.00084
57 | TCATTGTGGT | 0.988 ± 0.018
58 | TCATTGTTCG | 0.958 ± 0.0035
59 | TCATTTTTAC | 1.049 ± 0.0072
60 | TCCAAACCCC | 1.12 ± 0.046
61 | TCCAACATTT | 1 ± 0.046
62 | TCCAATTTTT | 0.986 ± 0.024
63 | TCCACATTCC | 1.57 ± 0.35
64 | TCCAGAGTGC | 1.017 ± 0.0033
65 | TCCAGCGGGG | 1.01 ± 0.047
66 | TCCAGCTGA | 2.688 ± 0.015
67 | TCCAGGGGAG | 1.13 ± 0.032
68 | TCCAGGGGTG | 1.65 ± 0.025
69 | TCCAGGGTGC | 1.93 ± 0.37
70 | TCCAGGTGAC | 4.19 ± 0.38
71 | TCCAGTATTA | 0.9945 ± 0.0042
72 | TCCAGTGGAA | 0.989 ± 0.044
73 | TCCATAATAG | 1.16 ± 0.028
74 | TCCATACCAC | 1.03 ± 0.032
75 | TCCATCAGCT | 1.1 ± 0.025

Row | Sequence | switch fluorescence ratio
76 | TCCATGTTCT | 0.992 ± 0.034
77 | TCCATTGGTG | 1.2 ± 0.025
78 | TCCCAAAGGG | 1.63 ± 0.91
79 | TCCCAATGCT | 4.02 ± 0.55
80 | TCCCCAGGGG | 1.1 ± 0.11
81 | TCCCCCCCTT | 1.41 ± 0.58
82 | TCCCCGTTTC | 1.65 ± 0.75
83 | TCCCGAATTT | 1.02 ± 0.016
84 | TCCCGCGGCG | 1.08 ± 0.041
85 | TCCCGGGGGA | 2 ± 1.2
86 | TCCCGGGTCT | 0.992 ± 0.029
87 | TCCCGGGTTT | 1.1 ± 0.14
88 | TCCCGTTTTT | 1.02 ± 0.065
89 | TCCCTAAAAG | 0.9896 ± 0.0049
90 | TCCCTCTCCG | 1.27 ± 0.36
91 | TCCCTTTAGT | 1.01 ± 0.024
92 | TCCGAACTCG | 1.22 ± 0.019
93 | TCCGACTCTT | 1.53 ± 0.72
94 | TCCGACTGGT | 1.127 ± 0.0014
95 | TCCGCGGCTT | 2.12 ± 1.5
96 | TCCGCGGGTG | 1.61 ± 0.82
97 | TCCGCGTACG | 2.75 ± 0.056
98 | TCCGGAATGG | 4.16 ± 0.47
99 | TCCGGAGTTT | 2.55 ± 0.38
100 | TCCGGATATA | 1.065 ± 0.004

Row | Sequence | switch fluorescence ratio
101 | TCCGGCAAGT | 2.17 ± 0.13
102 | TCCGGCTACC | 1.38 ± 0.039
103 | TCCGGGAAGC | 1.24 ± 0.035
104 | TCCGGGATAT | 2.23 ± 0.98
105 | TCCGGGCGGA | 1.01 ± 0.021
106 | TCCGGGGGAC | 1.52 ± 0.59
107 | TCCGGGGGGT | 1.05 ± 0.025
108 | TCCGGGGTAA | 1.37 ± 0.51
109 | TCCGGGGTTT | 1.02 ± 0.056
110 | TCCGGGTTTG | 1.02 ± 0.037
111 | TCCGGTTAGT | 1.04 ± 0.015
112 | TCCGTATTTT | 1.29 ± 0.41
113 | TCCGTCAATG | 1.63 ± 0.07
114 | TCCGTTGTGG | 0.991 ± 0.037
115 | TCCGTTTGTG | 1 ± 0.024
116 | TCCTAAATGT | 0.976 ± 0.048
117 | TCCTACGTTT | 1.75 ± 0.86
118 | TCCTAGCGCC | 2.02 ± 0.2
119 | TCCTAGGGGA | 1.03 ± 0.0033
120 | TCCTATAAAA | 0.987 ± 0.032
121 | TCCTCGGGGC | 1.6 ± 0.095
122 | TCCTGACGTC | 1.043 ± 0.0039
123 | TCCTGATTAT | 0.989 ± 0.011
124 | TCCTGCAAGG | 1.07 ± 0.05
125 | TCCTGGCAAA | 1.59 ± 0.6

Row | Sequence | switch fluorescence ratio
126 | TCCTGGGGGC | 1.02 ± 0.058
127 | TCCTGGTTTT | 0.996 ± 0.046
128 | TCCTGTTCCT | 1.02 ± 0.062
129 | TCCTTGACGA | 1.06 ± 0.013
130 | TCCTTGCTTT | 1.1 ± 0.025
131 | TCCTTGGGGT | 1.73 ± 0.97
132 | TCCTTTGCGT | 1.55 ± 0.39
133 | TCCTTTTAAT | 1.045 ± 0.0012
134 | TCCTTTTGT | 1.02 ± 0.068
135 | TCCTTTTGTT | 1.06 ± 0.15
136 | TCCTTTTTGC | 1.07 ± 0.069
137 | TCCTTTTTGT | 1.41 ± 0.54
138 | TCGAAAATCG | 1 ± 0.049
139 | TCGAAAGAGA | 1.02 ± 0.025
140 | TCGAAAGCTT | 1.34 ± 0.42
141 | TCGAAAGTCT | 0.995 ± 0.012
142 | TCGAAATCAC | 1.32 ± 0.046
143 | TCGAACTCTT | 1.03 ± 0.021
144 | TCGAACTGGG | 1.007 ± 0.0091
145 | TCGAAGTTGT | 1.01 ± 0.022
146 | TCGAATATTG | 0.9849 ± 0.004
147 | TCGAATGGGC | 0.98 ± 0.037
148 | TCGAATGGGT | 1.02 ± 0.013
149 | TCGAATTCGC | 1.0071 ± 8.5e-05
150 | TCGACATCGG | 1.016 ± 0.0061

Row | Sequence | switch fluorescence ratio
151 | TCGACGCGCC | 5.12 ± 0.52
152 | TCGACGGGCG | 1.03 ± 0.02
153 | TCGACTATTT | 1.04 ± 0.046
154 | TCGAGAAAGG | 0.98962 ± 0.00052
155 | TCGAGCCATA | 1.08 ± 0.046
156 | TCGAGCGCAC | 2.54 ± 0.34
157 | TCGAGCTGAA | 1.018 ± 0.0016
158 | TCGAGGGGTC | 1.06 ± 0.075
159 | TCGAGGGGTG | 1.01 ± 0.039
160 | TCGAGTCTTT | 0.998 ± 0.015
161 | TCGAGTTTGT | 1.01 ± 0.022
162 | TCGAGTTTTT | 0.996 ± 0.02
163 | TCGATAGTTC | 1.03 ± 0.028
164 | TCGATCAACG | 0.9909 ± 0.0013
165 | TCGATCTACT | 1.06 ± 0.024
166 | TCGATGATCG | 0.963 ± 0.046
167 | TCGATGATGG | 1.05 ± 0.013
168 | TCGATTAGGG | 1.04 ± 0.017
169 | TCGATTATTT | 1.016 ± 0.0059
170 | TCGATTGGCG | 1.07 ± 0.1
171 | TCGCAAATTT | 1.3 ± 0.12
172 | TCGCATGTCT | 1.11 ± 0.098
173 | TCGCATTCGT | 1.25 ± 0.026
174 | TCGCATTGAG | 1.1 ± 0.011
175 | TCGCCAAATT | 1.1 ± 0.21

Row | Sequence | switch fluorescence ratio
176 | TCGCCATTGT | 1.02 ± 0.03
177 | TCGCCGGGCG | 0.993 ± 0.0075
178 | TCGCCTGTTT | 1.003 ± 0.0036
179 | TCGCGATAAA | 1.06 ± 0.017
180 | TCGCGCATTG | 1.14 ± 0.13
181 | TCGCGCCTTG | 1.01 ± 0.021
182 | TCGCGGGGGG | 0.976 ± 0.034
183 | TCGCGTGGTA | 0.989 ± 0.038
184 | TCGCGTTCGG | 1.02 ± 0.013
185 | TCGCTATAGC | 1.02 ± 0.067
186 | TCGCTGAATA | 1.04 ± 0.052
187 | TCGCTGAGTG | 1.08 ± 0.12
188 | TCGCTTACAT | 1.0488 ± 0.00048
189 | TCGGAAATGT | 1.12 ± 0.14
190 | TCGGAATGGG | 0.975 ± 0.017
191 | TCGGACGGGT | 1.02 ± 0.025
192 | TCGGACTATA | 1.06 ± 0.033
193 | TCGGACTGAG | 0.968 ± 0.029
194 | TCGGACTTTA | 0.998 ± 0.042
195 | TCGGAGAGTC | 1.26 ± 0.53
196 | TCGGAGGA | 1.03 ± 0.048
197 | TCGGAGTTTG | 0.9963 ± 0.0024
198 | TCGGCCCGTT | 1.01 ± 0.018
199 | TCGGCCGGAA | 1.08 ± 0.025
200 | TCGGCGGGGT | 1.75 ± 1.3
